Reference: patent US20170182124A1, “FGF21 Derivatives and Uses Thereof” (Novo Nordisk A/S, priority 2014, published 2017)
Positions count from the first letter of the chain named. Marks after values point to notes of the source that are not given here.

B1: S{Beta-181}-[2-[2-[[2-[2-[2-[[2-[2-[2-[[(4S)-4-carboxy-4-(17-carboxyheptadecanoyl-amino)butanoyl]amino]ethoxy]ethoxy]acetyl]amino]ethoxy]ethoxy]acetyl]amino]-ethylamino]-2-oxoethyl]-Ala[Gln121,Leu168, … (protein)
chain: HPIPDSSPLLQFGGQVRQRYLYTDDAQQTEAHLEIREDGTVGGAADQSPESLLQLKALKPGVIQILGVKTSRFLCQRPDGALYGSLHFDPEACSFRELLLEDGYNVYQSEAHGLPLHLPGQKSPHRDPAPRGPARFLPLPGLPPALPEPPGILAPQPPDVGSSDPLSLVGPSQGRSPSYAC
B2: S{Beta-180}-[2-[2-[[2-[2-[2-[[2-[2-[2-[[(4S)-4-carboxy-4-(13-carboxytridecanoyl-amino)butanoyl]amino]ethoxy]ethoxy]acetyl]amino]ethoxy]ethoxy]acetyl]amino]-ethylamino]-2-oxoethyl]-Ala[Gln121,Leu168,Cy … (protein)
chain: B1 chain with A180C, C181S
B3: S{Beta-180}-[2-[2-[[2-[2-[2-[[2-[2-[2-[[(4S)-4-carboxy-4-(15-carboxypentadecanoyl-amino)butanoyl]amino]ethoxy]ethoxy]acetyl]amino]ethoxy]ethoxy]acetyl]amino]-ethylamino]-2-oxoethyl]-Ala[Gln121,Leu168, … (protein)
chain: B1 chain with A180C, C181S
B4: S{Beta-180}-[2-[2-[[2-[2-[2-[[2-[2-[2-[[(4S)-4-carboxy-4-(17-carboxyheptadecanoyl-amino)butanoyl]amino]ethoxy]ethoxy]acetyl]amino]ethoxy]ethoxy]acetyl]amino]-ethylamino]-2-oxoethyl]-Ala[Gln121,Leu168, … (protein)
chain: B1 chain with A180C, C181S
B5: S{Beta-180}-[2-[2-[[2-[2-[2-[[2-[2-[2-[[(4S)-4-carboxy-4-(11-carboxyundecanoyl-amino)butanoyl]amino]ethoxy]ethoxy]acetyl]amino]ethoxy]ethoxy]acetyl]amino]-ethylamino]-2-oxoethyl]-Ala[Gln121,Leu168,Cys … (protein)
chain: B1 chain with A180C, C181S

System: not listed separately
Experiment: Pharmacokinetic study in mini pigs (i.v.)
Conditions: terminal half-life, female Gottingen mini pigs
Description: The purpose of this study was to determine the protraction in vivo of the FGF21 derivatives after i.v. administration to mini pigs and mice, i.e. the prolongation of their time in the body and thereby their time of action. This was done in a pharmacokinetic (PK) study, where the terminal half-life of the analogue in question was determined. By terminal half-life is meant the time it takes to halve a certain plasma concentration in the terminal elimination phase.
Female Gottingen mini pigs were obtained from Ellegaard Gottingen Minipigs (Dalmose, Denmark) approximately 7-14 months of age and weighing approximately 16-35 kg were used in the studies. The mini pigs were housed either individually (pigs with permanent catheters) or in a group and fed restrictedly once or twice daily with SDS mini pig diet (Special Diets Services, Essex, UK).
After at least 2 weeks of acclimatisation two permanent central venous catheters were implanted in vena cava caudalis or cranialis in each animal. The animals were allowed 1 week recovery after the surgery, and were then used for repeated pharmacokinetic studies with a suitable wash-out period between successive dosing.
Blood samples (for example 0.8 ml) were collected in EDTA (8 mM) coated tubes and then centrifuged at 4° C. and 1942G for 10 minutes. Blood samples were collected to adequately cover the full plasma concentration-time profile of the API. In example blood samples were collected at t=predose, 0.0833, 0.25, 0.5, 0.75, 1, 1.5, 2, 3, 4, 6, 8, 10, 24, 30, 48, 72, 96, 120, 144, 168, 192, 216, 240, 264 hours after dose.
Plasma was pipetted into Micronic tubes on dry ice, and kept at −20° C. until analysed for plasma concentration of the respective FGF-1 analogue using ELISA. Individual plasma concentration-time profiles were analyzed by a non-compartmental pharmacokinetic method in Phoenix v. 6.3 (Pharsight Inc., Mountain View, Calif., USA), or other relevant software for PK analysis, and the resulting terminal half-lives (harmonic mean) determined.

Molecule | Half-life mini pigs
B1 | 85 h
B2 | 3 h
B3 | 23 h
B4 | 70 h

Molecular target: FGF receptor/BKL complex
Sequence (Q86Z14 whole entry, one chain of several): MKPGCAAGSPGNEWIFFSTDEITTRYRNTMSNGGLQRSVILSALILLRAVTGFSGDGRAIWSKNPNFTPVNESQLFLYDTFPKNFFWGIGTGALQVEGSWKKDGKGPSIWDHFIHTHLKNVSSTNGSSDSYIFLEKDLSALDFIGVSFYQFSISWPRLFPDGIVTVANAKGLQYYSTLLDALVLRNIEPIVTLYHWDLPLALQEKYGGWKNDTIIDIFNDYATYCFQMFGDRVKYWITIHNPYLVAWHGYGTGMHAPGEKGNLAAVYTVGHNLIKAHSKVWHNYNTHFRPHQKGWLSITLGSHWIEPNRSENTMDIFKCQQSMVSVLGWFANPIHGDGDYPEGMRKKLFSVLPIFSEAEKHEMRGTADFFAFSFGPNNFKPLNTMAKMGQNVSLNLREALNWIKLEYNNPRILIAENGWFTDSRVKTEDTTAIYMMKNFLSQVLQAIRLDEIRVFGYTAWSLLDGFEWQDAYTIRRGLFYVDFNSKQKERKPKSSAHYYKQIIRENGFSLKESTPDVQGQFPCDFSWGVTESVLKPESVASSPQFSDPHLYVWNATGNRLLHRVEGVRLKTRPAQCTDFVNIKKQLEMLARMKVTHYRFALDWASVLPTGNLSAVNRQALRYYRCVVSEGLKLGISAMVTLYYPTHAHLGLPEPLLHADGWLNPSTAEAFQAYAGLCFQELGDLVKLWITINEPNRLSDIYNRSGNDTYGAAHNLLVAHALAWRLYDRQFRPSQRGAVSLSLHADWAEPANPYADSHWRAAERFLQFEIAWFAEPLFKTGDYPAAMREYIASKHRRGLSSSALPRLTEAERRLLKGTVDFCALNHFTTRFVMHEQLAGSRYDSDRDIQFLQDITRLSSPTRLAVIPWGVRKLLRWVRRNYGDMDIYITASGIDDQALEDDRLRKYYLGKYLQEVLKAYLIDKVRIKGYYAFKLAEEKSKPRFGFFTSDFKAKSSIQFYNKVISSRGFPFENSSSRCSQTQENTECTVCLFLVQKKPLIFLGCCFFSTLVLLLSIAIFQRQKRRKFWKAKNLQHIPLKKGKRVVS
Experiment: FGF receptor potency in an Erk phosphorylation assay in HEK293 overexpressing human BKL
Type: cell-based
Conditions: HEK293/BKL cells, pERK after 12 minutes, absence of HSA; read-out: EC50
How it was run: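 pERK after 12 min analogue exposure at 37° C. was quantified by AlphaScreen SureFire in lysates of beta-klotho-transfected HEK293 cells. Assay medium was DMEM with 0.02% Tween20, run both without albumin and with 0.1% final HSA to probe albumin binding. Cells were starved 2 h in basal medium first. Absolute EC50 reported.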

Molecule | EC50
B5 | 7 nM
B1 | 42 nM
B2 | 6 nM
B3 | 4 nM
B4 | 5 nM

Same assay, conditions: HEK293/BKL cells, pERK after 12 minutes, presence of 0.1% HSA; read-out: EC50 (0.1% HSA)

Molecule | EC50
B5 | 4 nM
B1 | 170 nM
B2 | 6 nM
B3 | 6 nM
B4 | 48 nM

System: not listed separately
Experiment: Body weight reduction in lean mice
Type: in vivo, lean C57BL mice
Conditions: s.c. 1 mg/kg BID for 7 days, change from baseline day 1 to 7
Description: In order to determine the in vivo potency of the FGF21 derivatives the effect on body weight was studied in lean C57BL mice after subcutaneous (s.c.) administration. It has previously been shown that the weight loss induced by FGF21 in lean mice is predictive of the effect in obese mice and therefore lean mice are considered a good screening model.
The compounds were administered s.c. 1 mg/kg either once (QD) or twice (BID) daily in 10 mM phosphate, 2% (w/vol) glycerol, 500ppm (=0.05%) polysorbate 80, pH=8.15, (2 ml/kg) for 7 days (n=7-8). The respective vehicle treated groups (control) were treated with 10 mM phosphate, 2% (w/vol) glycerol, 500ppm (=0.05%) polysorbate 80, pH=8.15, (2 ml/kg) s.c. twice daily for 7 days (n=6-8). Body weight was measured before dosing and again after 7 days treatment.

Molecule | Mean Δ body weight (%)
B5 | −2.04%
B2 | −3.09* %

Same assay, conditions: s.c. 1 mg/kg QD for 7 days, change from baseline day 1 to 7

Molecule | Mean Δ body weight (%)
B2 | 1.85%
B3 | −4.48*** %
B4 | −10.59*** %

Molecular target: 3T3-L1 adipocytes (Mus musculus, UniProt P16092+Q99N32)
Sequence (Q99N32 whole entry): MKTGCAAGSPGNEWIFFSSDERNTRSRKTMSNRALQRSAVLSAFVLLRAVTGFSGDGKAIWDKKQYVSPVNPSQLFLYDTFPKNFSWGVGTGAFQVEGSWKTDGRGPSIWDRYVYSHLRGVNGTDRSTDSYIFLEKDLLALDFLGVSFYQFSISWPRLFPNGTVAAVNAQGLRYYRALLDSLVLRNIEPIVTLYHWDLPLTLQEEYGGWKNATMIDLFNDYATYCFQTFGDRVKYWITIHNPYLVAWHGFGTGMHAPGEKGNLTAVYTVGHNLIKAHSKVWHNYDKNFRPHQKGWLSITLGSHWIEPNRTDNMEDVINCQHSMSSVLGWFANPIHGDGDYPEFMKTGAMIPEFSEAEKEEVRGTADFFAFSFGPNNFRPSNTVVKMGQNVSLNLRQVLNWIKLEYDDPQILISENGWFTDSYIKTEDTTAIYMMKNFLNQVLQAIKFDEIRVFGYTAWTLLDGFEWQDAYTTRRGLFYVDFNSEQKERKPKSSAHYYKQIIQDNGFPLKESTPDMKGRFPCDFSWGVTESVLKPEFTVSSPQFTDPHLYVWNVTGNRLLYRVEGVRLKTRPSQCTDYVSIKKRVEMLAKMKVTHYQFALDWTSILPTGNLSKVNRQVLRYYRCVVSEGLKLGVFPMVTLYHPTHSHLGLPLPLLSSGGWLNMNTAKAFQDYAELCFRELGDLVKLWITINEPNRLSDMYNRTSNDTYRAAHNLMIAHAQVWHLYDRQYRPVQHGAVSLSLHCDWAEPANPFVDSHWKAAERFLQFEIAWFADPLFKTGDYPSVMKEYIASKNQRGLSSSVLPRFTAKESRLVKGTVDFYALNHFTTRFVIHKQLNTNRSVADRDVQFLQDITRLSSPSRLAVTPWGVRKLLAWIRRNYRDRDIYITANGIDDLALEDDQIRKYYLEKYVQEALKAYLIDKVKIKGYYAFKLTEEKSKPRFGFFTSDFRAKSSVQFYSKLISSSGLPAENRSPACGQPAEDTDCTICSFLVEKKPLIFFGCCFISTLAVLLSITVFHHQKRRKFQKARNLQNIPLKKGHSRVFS
Sequence (P16092 22-822): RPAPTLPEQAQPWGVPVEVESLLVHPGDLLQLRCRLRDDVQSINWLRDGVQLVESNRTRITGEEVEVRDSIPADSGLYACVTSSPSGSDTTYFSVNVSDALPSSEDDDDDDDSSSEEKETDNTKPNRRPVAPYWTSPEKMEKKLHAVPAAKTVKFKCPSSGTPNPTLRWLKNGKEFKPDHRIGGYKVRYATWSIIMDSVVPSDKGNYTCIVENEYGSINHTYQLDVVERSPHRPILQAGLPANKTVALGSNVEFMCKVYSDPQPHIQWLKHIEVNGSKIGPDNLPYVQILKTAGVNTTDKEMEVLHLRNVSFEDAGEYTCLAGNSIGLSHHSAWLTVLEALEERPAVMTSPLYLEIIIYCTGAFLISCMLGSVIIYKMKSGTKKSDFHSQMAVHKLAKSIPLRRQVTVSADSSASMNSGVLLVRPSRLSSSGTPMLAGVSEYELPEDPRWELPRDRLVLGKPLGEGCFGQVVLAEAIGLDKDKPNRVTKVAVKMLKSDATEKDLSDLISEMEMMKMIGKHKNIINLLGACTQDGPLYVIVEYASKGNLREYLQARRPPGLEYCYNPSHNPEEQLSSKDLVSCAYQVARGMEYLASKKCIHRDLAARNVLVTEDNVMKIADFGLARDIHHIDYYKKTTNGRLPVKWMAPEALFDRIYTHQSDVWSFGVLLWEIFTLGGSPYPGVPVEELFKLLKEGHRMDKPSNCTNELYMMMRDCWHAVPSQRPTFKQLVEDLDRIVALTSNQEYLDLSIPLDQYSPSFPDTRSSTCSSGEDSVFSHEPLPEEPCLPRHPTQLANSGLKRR
Experiment: Glucose uptake in 3T3-L1 adipocytes
Type: cell-based
Conditions: stimulated 20 hours, 3H-deoxy-glucose
Description: The C-terminal modified analogues were tested for their ability to increase glucose uptake in 3T3-L1 mouse adipocytes. The following assay was used for determining the biological activity, or potency, of FGF21 analogues and derivatives of the invention.
The in vitro potency may also be determined in an assay with mouse 3T3-L1 adipocytes by testing the FGF21 analogues and derivatives for their ability to increase glucose uptake into adipocytes. Differentiated 3T3-L1 adipocytes endogenously express FGFR1c and BKL. The 3T3-L1 cells are unresponsive to FGF21 until after differentiated as differentiation lead to expression of the co-receptor BKL. Activation of the FGFR1 receptor/BKL complex increase the expression of glucose transporter 1 (GLUT1) and therefore FGF21 agonists will lead to an increased amount of glucose taken into the adipocytes in a dose responsive manner.
Mouse 3T3-L1 fibroblasts (e.g. available from ATCC, catalogue no. CL-173) were maintained in basal medium (DMEM (4500 mg/I Glucose) with 10% Fetal Bovine Serum (FBS) and 1% Penicillin/Streptomycin). The cells are not allowed to reach confluence and should be passed (transferred to new vials) before reaching approx. 60% of confluency (by visual inspection).
For the glucose uptake assay, cells were 15.000 cells/well in a 96 well plate (BIOCOAT), and when they reached confluency (high density, with a view to have differentiated adipose cells made), the medium was changed from basal medium to basal medium containing Troglitazone, IBMX, Dexamethasone (commercially available from, e.g., Sigma) and human insulin (commercially available from, e.g., Novo Nordisk A/S).
The cells were used 7-9, days after initiation of differentiation. The cells were stimulated with increasing concentrations (0-300 nM) of the FGF21 analogues or derivatives of the invention for 20 hours in basal medium. Before addition of 3H-deoxy-glucose (in what follows: the tracer) the cells were washed in warm (approximately 37° C.) assay buffer (PBS with 1 mM MgCl2 and 2 mM CaCl2), HEPES and 0.1% Human serum albumin) and the cells were incubated with the tracer for 1 hour. This incubation was terminated by washing twice in ice cold assay buffer. The cells were lysed with Triton X-100 and lysates transferred to a 96 wells plate, microscint-40 (commercially available from, e.g., Perkin Elmer) was added and amount of tracer counted in a TOP-counter (e.g. a Packard top-counter from Perkin Elmer). The EC50 and Emax of the FGF21 compound in question were calculated. The results which are shown in tables 4-5 below indicate the EC50 (potency) and Emax (efficacy) of the FGF21 analogues and derivatives, respectively.

Molecule | EC50 | Glucose uptake Emax
B5 | 2.7 nM | 87%
B1 | 56 nM | 73%
B2 | 6.7 nM | 106%
B3 | 9.1 nM | 98%
B4 | 32 nM | 109%

System: not listed separately
Experiment: Pharmacokinetic study in mice (i.v.)
Conditions: terminal half-life, single intravenous dose of 20 mg/kg, lean C57bl mice
Description: This was done in a pharmacokinetic (PK) study, where the terminal half-life of the analogue in question was determined. By terminal half-life is meant the time it takes to halve a certain plasma concentration in the terminal elimination phase.
The pharmacokinetic profile of FGF21 analogues was tested in normal lean C57b1 mice, n =2-3 (approximately 30 grams). FGF21 compounds were dosed as a single intravenous dose of 20 mg/kg (approximately 5 ml/kg).
The plasma levels of the FGF21 compounds were determined using Fibroblast Growth Factor-21 Human ELISA (available from BioVendor, catalogue no. RD191108200R). The PC based software, WnNonLin version 6.3 from Pharsight Corportion, Cary N.C., was used for the pharmacokinetic calculation.

Molecule | Half-life mice
B5 | 1 h
B1 | 14 h
B2 | 1 h
B3 | 3 h
B4 | 12 h
